As usually defined, the Kd is the free concentration of one partner at which half of the binding sites on the other are occupied at equilibrium, for simple one-to-one binding.

This note sets out measurements from publication PMC10907724, “Optineurin provides a mitophagy contact site for TBK1 activation” (The EMBO Journal, 2024).

The target of assay [1] is T1, OPTN (26–196 aa)-EGFP with E50K (UniProt Q96CV9 26-196, E50K).
T1 construct: source: E. coli BL21-CodonPlus(DE3)-RIL, purified (Ni-NTA); not shown: EGFP, C-terminal, kept
T1 sequence (Q96CV9 26-196 E50K): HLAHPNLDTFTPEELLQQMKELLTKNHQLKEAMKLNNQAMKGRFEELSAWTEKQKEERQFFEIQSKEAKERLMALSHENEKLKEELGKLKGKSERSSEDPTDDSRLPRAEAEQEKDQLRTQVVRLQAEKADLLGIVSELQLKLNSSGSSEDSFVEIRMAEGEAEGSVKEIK
Nature of the assay: pull-down; recombinant GST-TBK1 (677–729 aa), OPTN (26–196 aa)-EGFP or EGFP alone, and monobodies, 4.5 μM each, with glutathione Sepharose in 50 mM Tris–HCl pH 7.5, 120 mM NaCl, 1 mM TCEP, 10% glycerol, 30 min at room temperature; washes with 0.1% Triton X-100; CBB staining. Conditions: both partners purified.

Assay [2] deals with T2, biotinylated OPTN (26–196 aa) (UniProt Q96CV9 26-196, NH2-GGG(Lys[Biotin])-CONH2 joined at the C-terminal sortase recognition sequence by Sortase 5Y).
T2 construct: also called Biotin-modified OPTN; not shown: GST, N-terminal, cleaved; His6, C-terminal, cleaved; biotin (GGGK-biotin), C-terminal, kept
T2 sequence (Q96CV9 26-196): as the sequence (Q96CV9 26-196 E50K) above, with K25E counted along it
Nature of the assay: BLI; biotinylated OPTN (26–196 aa) immobilised on a streptavidin biosensor (Octet); monobody as analyte at various concentrations; 30 °C; 50 mM Hepes-KOH pH 7.5, 300 mM NaCl, 0.05% Tween 20, 0.1% PEG6000; association 600 s, dissociation 600 s; global fitting. Conditions: both partners purified. For orientation: Biolayer interferometry detects binding as a change in optical thickness at a sensor tip.

B1: GST-TBK1 (677–729 aa) (domain or fragment, UniProt Q9UHD2 677-729, looked up)
chain: YPSSNTLVEMTLGMKKLKEEMEGVVKELAENNHILERFGSLTMDGGLRNVDCL
notes: Plasmid pGEX6P1_opt-TBK1 (677–729aa); also called GST-tagged TBK1 (677–729 aa); GST-TBK chimera; source: E. coli BL21-CodonPlus(DE3)-RIL, purified (glutathione Sepharose); not shown: GST, N-terminal, kept
Take B1: in assay [1], the binding result was “binds”.

B2: recombinant OPTN monobody clone #3 (His6-tagged) (designed binder)
chain: VSDVPRDLEVVAATPTSLLISWDAPWWWDYGYMYYRITYGETGGNSPVQEFTVPGSKSTATISGLKPGVDYTITVYAWDVAEWVTKVATSWPISINYRT
In turn, B2 yielded a Kd in assay [2] of 4.56 nM.

B3: recombinant OPTN monobody clone #4 (His6-tagged) (designed binder)
chain: VSDVPRDLEVVAATPTSLLISWDAPWFWYFPYYYQEWYYRITYGETGGNSPVQEFTVPGSKSTATISGLKPGVDYTITVYAAMELKGIQEYRNPISINYRT
Molecule B3 returned a Kd in assay [2] of 6.19 nM.
